Experimental data from the DeepSol protein solubility set.

Assay: soluble on expression in E. coli; label from the status in PepcDB or PDB records

Soluble on expression in E. coli, not soluble:
MAHHHHHHMKKQIKWKAHKGVVLCADWSRMSGMIVTGGEDGVYKVWDPYGCSIFVAAAGEHPITSVRFAADGESFAVGSFMNVRVCDKTGWSHSYERTTEGSAMALDWMPDGTQMILGNGTGALSIAQIVDRKVSWGPYTVTLLDSRRLTVQDVVKDTVQEIELADKVIKLELGCGYLVVCTTTQCCCYPMDRLNAPVQFDLRDPVISIILGPRQFLLADCSQGLQVYSYEGRQISVLRLQVTLKPEIMTTNLLSLSPETVAMRNPADAKRILFFDVSSGKPFDAASVAHHLDIVSVHLSQSGSLHDRKIAFIDRNNDLYFGPVHTQLGFHKLSTMTTSVAWHDSHETLVAIADGHLATWYYPSTIFTDRDLLSLTKTVRDGGHTEFTRNDRITHFHHTRVLVRRGGDGALLTLPVSPYTVMIFQLVTQKNNWDGATRLARFLKDPLLWAVLTALALRAGELNVAEIGYGALSDLAKVRYIHYIKGIPTPEARQAELALFQHRPAEAERILLQAGLVYRCIDMNTRLFKWERALEIAKERKTHLDTVLGRRERYLQEVSQKEMLAPFKDLSGKVKVDWAVIEEKVKQEVIKESERPNAKPYA, MSLNESEEKNSNSTYSFFFKNLSVTGFYEENCLFMTVKELFDNSIDALCNNKGDENIDEEGQGTQEKKIEIEIKEYGINSSFYEIICRDNGEGIEVKDLEKISEMFLTSKEKCITSGKFGIGLKTILLYSFKTAYGFLHIKIKVKKNKIWDFILVLDKNLNHTFVQNFKEYIDDKWEWTIEISVILKINNNYISDKKIHSYIKLFLLWKKNITVKYIHNPNGEQSIYTYSSHSDTSEENILSMLANNSINMIFKKDFLTSYNYDVNMYVNVRKSEKIIPYEHGHNIGFLFLIRYVNSMPLLRTSSSDCSITVDFRNFLKYYGPQFGIELPTIESRDEMILEELALPSCFDDLNKVANIFPVKRSEKSTWNIMIIGIDVRGRDISFVSLRKNCIKEGEYLSSLIKKCSINLYNNIKRELPQEFENLSDYQLRQALNIYGVQLASSLSKIILKGHEEFKNKIFFLLNEKKKIKNNSTCEKEEYNNKFTSYDENILTRELYSHIKEKIMLNEKTYENPKAKIQLTGDSNKSYYKNEGHHHHHH, MSLDGGYRTLAAAELFKRYGHLISPVSGPIAYLHPMPGRNAGMRHMYVAGYLVCPPSAPRENRFDKLCSGKGASDAQARASALAEALERFSGVYQGDEAALRGSLAQLSAHAPPGSGPIDVNALQQYSDRQFERRERHNATTDDPRKQVPRRFTRDSVIDWTPAWSIATGARRLVPLAYCYAETPASSGADYCVHNPNGCAAGACIEEAILQGLLELVERDAVAIWWYNMLRRPAVDIESFGDPYFDALAADYASLGWRLWALDITHDLRIPVFVALARETATGRFSIGFGCHPDSRIALQRALTEVNQLLDVGASAPPPWDVDKLPDDAFLHPDPALPPVRAPARAPHGRCDLKRDIEDCVARLAAAGIDTLVVDKTRPDIGLPVVQVIAPGLCHFWPRFGAPRLYSVPVAQRWRERPRDEDALNRAEGHHHHHH, MGSDKIHHHHHHMSAQIIQLHTEAPAASVAQSPRKPTKAEKAIIADYVQDLIRRGFCKITDKSAKETRLFNRFDGEPQTLSYLRENFTEWLDDNGKECEFFCERYFIRRLKHIVGRVFKPNAPEFTQSPITGYRYANTYRRYEPTVDSADLPSCFHAYFERMFPAKHQRHIVLQWLAHIFRRPDQRPSWHLMLLSEPGTGKGFLVQNILQPLLHHTSVVASYSRITGKHSAVLVENLVILLDDCKSRSEATQTEMKSFLSEERALVERKYASAGMEDTYARMILASNEEIPLYVDPNERRWYIPDDVVHLVDLRETQANIIQPLADWLDEPGSLCKVYNWFMQYPLDGFNHKSVPESEGLTRLIDKSKGPYRQYIEDYVKDNKVFTYADLVESMTDAKLSKPSDRELGHVLREIGYEATQRRIDGVRLRLCHPVGMSLQDIRAAYSASPTDPNTPF, MSSLLTIALAVTISCVNTVEDQYFGGQNAEPVAKVEQKATSNNTLADLEKDPLYPYIDKQNKLVEKNGIQYIENEENILVLANKDYSLQPTYTPPDLVRPNVTFSFGNEQVEKAQLRKEAGTALEEMFKAANQDGKKLFAVSGYRSYKRQQEVFQAEVNSKGDKKAREAVAYPGTSEHQTGLAMDISSENQSYELTEAFGTTPEGKWLEENAHNYGFILRYMKGREDITKYQYESWHYRYVGKDAATIIYKNNWTLEEFFEHVKALQKKVDAAK, MGSDKIHHHHHHMLFYLPVTGQNTAVYPDQFGAYFNNMHLVTPSYFPKDVKVNLSLSYKSRTGALNKISTFNVAFTRVFNHTKPTNHLIRIYFYNEKDGPYIHRPRAYINYGYKIALSKQVNIAAGAAFGFAQTAFTAPSSTANGNSISPDASIGLSLQVKNFEAGFSVCQLLNSEVNPVVAPIIYRRYYNTYLSYHADLSPFIKLKSGMLWRALPTYDDDLNIYSMLEYKETISFGGCYRYNKNFSFVVSTNIHIGKESILLSFVYNTPFFTKLPAWTDSVELNGGYNFY, MPSIYKSVTINTSKEMMCFSDFPVPDHFPNYMHNSKLMDYFGMYATHFGLLNYIRFKTEVQSVRKHPDFSINGQWDVVVETEEKQETLVFDGVLVCSGHHTDPYLPLQSFPGIEKFEGCYFHSREYKSPEDFSGKRIIVIGIGNSGVDIAVELSRVAKQI, MLRVRLTKMQSDELDAIIGELQAQMPEASVTTSSIARYALEKYVSDHIAKRDGTKIFIEINTADATEEEIKNLYDLLSKLFDEAKENYSPMVHYMVGEILEPLMMKMARLMKLKKPEVKAGE, TPMYESTSELYVLSKSTSITSLADIQTGTSLTNDYIVVVKGRPVLDQVIENLNLNESYKTLGGRVTLDNPSNSRVLNITVTDPDPQMAKTIADEIAKVASAYIAEKMKQDPPTIIQSGYDDGGAVSPNIGKNT, MGSDKIHHHHHHMKIIDGNIASPLGFSADGLHAGFKKRKKDFGWIVSEVPASVAGVYTTNKVIAAPLIVTRESVKKAQKMQALVVNSGVANSCTGLQGMEDAYTMQKWTATKLKIAPELVGVASTGVIGDLMPMDTLQKGLSKLVVNGNSDDFAQAILTTDTKVKTVAVTEQFGRDEVTMAGVAKGSGMIHPNMATMLAFITCDAVISSETLQLALSQNVETTFNQITVDGDTSTNDMVLVLSNGCTLNKEILPDTPEFDKFSAMLHFVMQELAKKIAKDGEGATKLIEVEVINAPNSLDACMMAKSVVGSSLVKTAIFGEDPNWGRILAAVGYAGVDVPVDNIDIYLADIPVMLASSPVDFDEEDMQDVMRADTIKIIVDLHAGDSVGKAWGCDLSYDYVKINALYRT

Soluble on expression in E. coli, soluble:
SGNRGVVYLGSGKVEVQKIDYPKMQDPRGKKIEHGVILKVVSTNICGSDQHMVRGRTTAQVGLVLGHEITGEVIEKGRDVENLQIGDLVSVPFNVACGRCRSCKEMHTGVCLTVNPARAGGAYGYVDMGDWTGGQAEYVLVPYADFNLLKLPDRDKAMEKIRDLTCLSDILPTGYHGAVTAGVGPGSTVYVAGAGPVGLAAAASARLLGAAVVIVGDLNPARLAHAKAQGFEIADLSLDTPLHEQIAALLGEPEVDCAVDAVGFEARGHGHEGAKHEAPATVLNSLMQVTRVAGKIGIPGLYVTEDPGAVDAAAKIGSLSIRFGLGWAKSHSFHTGQTPVMKYNRALMQAIMWDRINIAEVVGVQVISLDDAPRGYGEFDAGVPKKFVIDPHKTFSAA, MAHHHHHHMGTLEAQTQGPGSMSFSNVPAGKDLPQDFNVIIEIPAQSEPVKYEADKALGLLVVDRFIGTGMRYPVNYGFIPQTLSGDGDPVDVLVITPFPLLAGSVVRARALGMLKMTDESGVDAKLVAVPHDKVCPMTANLKSIDDVPAYLKDQIKHFFEQYKALEKGKWVKVEGWDGIDAAHKEITDGVANFKK, SDLWVQKMKTYFNRIDFDKDGAITRMDFESMAERFAKESEMKAEHAKVLMDSLTGVWDNFLTAVAGGKGIDETTFINSMKEMVKNPEAKSVVEGPLPLFFRAVDTNEDNNISRDEYGIFFGMLGLDKTMAPASFDAIDTNNDGLLSLEEFVIAGSDFFMNDGDSTNKVFWGPLV, MSLSDLTIQKVESRILDVPLIRPHGFATTTSTEQHILLVSVHLENGVIGYGEGVVPGGPWWGGESVETMKALVDGYLAPVLIGRAVSELAGIMADLERVVARARYAKAAVDVAMHDAWARSLNVPVRDLLGGTVRDKVDVTWALGVLPLDVAVAEIEERIEEFGNRSFKLKMGAGDPAEDTRRVAELAREVGDRVSLRIDINARWDRRTALHYLPILAEAGVELFEQPTPADDLETLREITRRTNVSVMADESVWTPAEALAVVKAQAADVIALKTTKHGGLLESKKIAAIAEAGGLACHGATSLEGPIGTAASLQFAASTKAISYGTELFGPQLLKDTYIVQEFEYKDGQVAIPQGPGLGVDVDMDKVNFYTRKEGHHHHHH, MGHHHHHHSHMIGKCTHVVDCRETMGMGEGGGIAQRGTFAQCGSEVLAVAMSPGRRHITKPVCEITFALREANIMTSTIVLNAGAGVPQDAPSAGAGSLFGLTPAEVEQMKRHKLLVVHLGGVKNHITYKARLILRNVDRPCIIICEYPVDFEDFAKIGVRTRAVMPDEPKTKGTIVDIVSGVIRGETCPQEKLDEIIRKVKLALGGA, MKKQVVEVLVEGGKATPGPPLGPAIGPLGLNVKQVVDKINEATKEFAGMQVPVKIIVDPVTKQFEIEVGVPPTSQLIKKELGLEKGSGEPKHNIVGNLTMEQVIKIAKMKRSQMLALTLKAAAKEVIGTALSMGVTVEGKDPRIVQREIDEGVYDELFEKAEKE, QGVRTFVDPFTFEDPNQAVREFAKEIDASCIKIEKVIGVGEFGEVCSGRLKVPGKREICVAIKTLKAGYTDKQRRDFLSEASIMGQFDHPNIIHLEGVVTKCKPVMIITEYMENGSLDAFLRKNDGRFTVIQLVGMLRGIGSGMKYLSDMSAVHRDLAARNILVNSNLVCKVSDFGMSRVLEDDPEAAYTTRGGKIPIRWTAPEAIAYRKFTSASDVWSYGIVMWEVMSYGERPYWDMSNQDVIKAIEEGYRLPPPMDCPIALHQLMLDCWQKERSDRPKFGQIVNMLDKLIRNPNSLKRTGSESS, MGHHHHHHSHMSLKGKRIGFGFTGSHCTYEEVMPHLEKLIAEGAEVRPVVSYTVQSTNTRFGEGAEWIKKIEEITGFKAINSIVGAEPLGPKIPLDCMVIAPLTGNSMSKFANAMTDSPVLMAAKATLRNGKPVVLAVSTNDALGLNGVNLMRLMATKNIYFVPFGQDAPEKKPNSMVARMELLEDTVLEALQGKQLQPVVVEKFRYMN, GMHSNINTLIANHRAGHALDQAFYTDAEVFQTDLQEIFYKEWLFAIPACELDKPGSYVTHQVGNYNVIIVRGADNVIRAFHNACRHRGSVICKAKKGNNPKLVCPYHQWTYELDGRLLWARDMGPDFEPSRHGLKTVHCRELAGLIYICLADEAPDFERFAEVARPYLEVHDLSNAKVAHESSIVERGNWKLVWENNRECYHCGGNHPALCRTFPDDPSVTGIEGGETPSNLQAHFDRCEQAGMPSGFHLSGDGQFRVARMPLKEGAESYTMDGKTAVRRWLGRAAFADAGSLLKFHYPTTWNHFLSDHSIVFRVTPISPTETEVTTKWLVHKDAVEGVDYDLQRLTEVWIATNDEDREVVEFNQMGINSPAYEPGPYSPTQESGVLQFVEWYLSTLKRNSGPHAVAAE, MTMETVESQHDGSITASLTESKSAHVQTQTGQNSIPALAQVAAIAETDESAESGGVIDSHKRREILSRRPSYRKILNELSSDVPGVPKIEEERSEEEGTPPSIATMAVPTSIYQTSTGQYIAIAQGGTIQISNPGSDGVQGLQALTMTNSGAPPPGATIVQYAAQSADGTQQFFVPGSQVVVQAATGDMPTYQIRAPTAALPQGVVMAASPGSLHSPQQLAEEATRKRELRLMKNREAAKECRRRKKE
